Results on one molecule are retold here after article PMC6230994 (2018).

For the experiment, the target named is His6:ΔIBB-IMPORTIN-α2 (Arabidopsis thaliana (Mouse-ear cress), UniProt F4JL11). The experiment in a line: analytical SEC.
Sequence of His6:ΔIBB-IMPORTIN-α2 (F4JL11 75-535, stated change not applied): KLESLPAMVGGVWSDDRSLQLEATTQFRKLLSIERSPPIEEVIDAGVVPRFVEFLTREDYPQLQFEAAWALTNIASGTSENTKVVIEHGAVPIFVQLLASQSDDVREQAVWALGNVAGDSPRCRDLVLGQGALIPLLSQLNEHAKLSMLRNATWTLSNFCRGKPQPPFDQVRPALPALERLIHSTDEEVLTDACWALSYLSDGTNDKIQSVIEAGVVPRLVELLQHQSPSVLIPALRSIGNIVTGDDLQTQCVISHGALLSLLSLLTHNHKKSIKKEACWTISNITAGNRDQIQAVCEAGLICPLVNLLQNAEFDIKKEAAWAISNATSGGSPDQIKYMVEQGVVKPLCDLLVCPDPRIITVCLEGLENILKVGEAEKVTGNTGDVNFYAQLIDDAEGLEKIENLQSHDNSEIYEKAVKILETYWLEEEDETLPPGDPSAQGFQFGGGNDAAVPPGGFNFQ

B1: His6:SUMO:SAP (protein)
chain: MANKLKVDELRLKLAERGLSTTGVKAVLVERLEEAIAEDTKKEESKSKRKRNSSNDTYESNKLIAIGEFRGMIVKELREEAIKRGLDTTGTKKDLLERLCNDANN
Consider B1, for which the binding result was “no binding”.
